Target: teleost IgM Fc (tFcµ): truncated teleost IgM heavy chain consisting of CHµ3, CHµ4 and the Tp (Oncorhynchus mykiss (rainbow trout))
Assay: cryo-EM structure; purified tFcµ tetramer fractions in TBS (20 mM Tris-HCl, NaCl, pH 7.8), 0.1 mg/mL on grids; map at 2.78 Å, C2 symmetry

With “teleost IgM Fc (tFcµ): truncated teleost IgM heavy chain consisting of CHµ3, CHµ4 and the Tp (domain or fragment)” the stoichiometry N was 4.

Source: PMC10663602
